Measured values: patent US20160009772A1 (Hoffmann-La Roche, published 2016)
Like-named read-outs stand apart in the source and are kept apart here. Each block holds one binder with its values, some of them ahead of it.

Key:
[1] = molecular target: T1, IRF5(222-467, S430D), S430D phosphomimetic construct of IRF5 (222-467) (human, UniProt Q13568-4 222-467); assay: TR-FRET IRF5 dimerization inhibition, S430D (222-467), peptide titrated
T1 construct: range 222-467; Used in the dimer assay in two tagged forms at once (biotin tag and His tag); S and R stand 10 residues further (S440, R363), so the construct is probably numbered on an isoform 10 residues shorter; also called mutant S430D (222-467); biotin tag IRF5(222-467, S430D)
T1 sequence (Q13568 232-477 S440D limits assumed): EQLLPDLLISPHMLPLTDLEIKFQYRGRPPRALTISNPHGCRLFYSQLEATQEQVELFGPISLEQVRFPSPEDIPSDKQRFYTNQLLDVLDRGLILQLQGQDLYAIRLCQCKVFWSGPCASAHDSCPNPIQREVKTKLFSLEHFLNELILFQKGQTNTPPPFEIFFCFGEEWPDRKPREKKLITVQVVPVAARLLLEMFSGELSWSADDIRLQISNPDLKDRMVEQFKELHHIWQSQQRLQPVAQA

[2] = molecular target: T2, N-terminal His (six histadine)-tagged IRF5 (222-425) SEQ ID NO 22 (human, UniProt Q13568 222-425); assay: direct binding TR-FRET, FITC peptide and Tb anti-His antibody (FIG. 2)
T2 construct: also called His tag IRF5(222-425); his-tagged IRF5 (222-425, lacking helix 5 and unable to homodimerize)
T2 sequence (Q13568 other isoform, or with tags, fused parts or gaps limits assumed): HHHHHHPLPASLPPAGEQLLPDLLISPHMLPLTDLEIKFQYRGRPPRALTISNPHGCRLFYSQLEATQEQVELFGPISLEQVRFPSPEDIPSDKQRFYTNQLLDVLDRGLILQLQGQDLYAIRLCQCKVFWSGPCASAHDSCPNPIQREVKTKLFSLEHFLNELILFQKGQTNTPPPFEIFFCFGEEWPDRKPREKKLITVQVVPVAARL
Procedure: Aliquots (1.6 μl per well) of 4 μM FITC peptide solution in DMSO were added into 96-well polypropylene plates (Corning). […] The samples were incubated at room temperature for 30 min. […] Samples were incubated at 4° C. for overnight and 18 μl per well were transferred to small volume 384-well polystyrene plates (Corning) in duplicates.

[3] = molecular target: T1, IRF5(222-467, S430D), S430D …; assay: TR-FRET IRF5 dimerization inhibition, S430D (222-467), peptide titrated; remark: listed apart in the source
Procedure: The samples were incubated at room temperature for 20 min. Seventeen microliters per well of detection solution containing 10 nM europium (Eu) conjugated streptavidin and 80 nM allophycocyanin (APC) conjugated anti-His antibody (Columbia Biosciences) in Assay Buffer (without DTT) were added. The samples were incubated at room temperature for 60 min followed by overnight incubation at 40 C and 30 ul per well were transferred to 384-well polystyrene plates (Matrix, Thermal Scientific) in duplicates. […] The data were processed in Excel XLfit and the IC50 values were calculated using a nonlinear curve-fitting algorithm (four parameter equation). The data represent an average of 3 independent experiments (each run in triplicates) and the reported errors represent standard deviation (s.d.).

B1: Ac-IRLQISNPDLKDLMVQWFKDGGPSSGAPPPS-NH2 (SEQ ID NO: 9) (peptide)
peptide: Ac-IRLQISNPDLKDLMVQWFKDGGPSSGAPPPS-NH2
IC50 [1]: 2420 nM

B3: control FITC labeled CPP designed not to bind IRF5 (SEQ ID NO: 23) (peptide)
peptide: Ac-YLKFIPLKRAIWLIK-NH2
modifications: also: FITC label, position and linker not given here
notes: Kept apart from m13
binding result [2]: no binding (tested: 0-10.5 uM His tag IRF5(222-425))

More lines, now with the values ahead:

IC50 [1]: 1670 nM
B2: Ac-PFPPLPIGEEAPKDDMVRFFKDLHQYLNVV-NH2 (SEQ ID NO: 10) (peptide)
peptide: Ac-PFPPLPIGEEAPKDDMVRFFKDLHQYLNVV-NH2

IC50 [3]: > 75000 nM
B4: Ac-YLKFIPLKRAIWLIK-NH2 (SEQ ID NO: 23), control CPP designed not to bind IRF5 (peptide)
peptide: Ac-YLKFIPLKRAIWLIK-NH2
